One block for each molecule: values may come before it.
How the values were obtained:
[1] = biological target: Kuenenia stuttgartiensis hydroxylamine oxidase (Kuenenia stuttgartiensis) (UniProt Q1PX48)
purified protein = substrate: NO; test: purified protein; type: biochemical, Candidatus Kuenenia stuttgartensis; settings: electron acceptor 50 μM bovine cytochrome c, 20 mM potassium phosphate pH 7.0, 37 °C, kcat per KsHAO trimer

Vmax NH2OH of hydroxylamine oxidation by KsHAO with 50 μM Kustc0563 as the electron acceptor (reduction of the acceptor followed at 550 nm) [1]: 15.8 µmol/min/mg | kcat NH2OH (KsHAO trimer) of hydroxylamine oxidation by KsHAO with 50 μM Kustc0563 as the electron acceptor [1]: 48.4 s^–1
Molecule: Kustc0563nt (Kustc0563 after cleavage of the N-terminal His-tag) (natural protein)

Vmax NH2OH of hydroxylamine oxidation by KsHAO with 50 μM BtCytc as the electron acceptor (reduction of the acceptor followed at 550 nm) [1]: 2.7 µmol/min/mg | kcat NH2OH (KsHAO trimer) of hydroxylamine oxidation by KsHAO with 50 μM BtCytc as the electron acceptor [1]: 8.4 s^–1
Molecule: bovine (Bos taurus) mitochondrial cytochrome c (from UniProt P62894 1-105) (natural protein)

B1: KsHAO (Candidatus Kuenenia stuttgartensis) (protein)
chain: CAMENGVAMAEGPTFQDVASQVFGQPVGPDNDGTLYIFGLTAKYTEPEYVDGRGPYKSFLKMLPSIRWYDPEHYWTNGSQTEGVFKNEECVLCHTVQTPTIVNDWKQSSHGSKDIRRGIGIKKDGKPVEDLVGCADCHGNNHQKLEMPTYKLCNDCHPKETAEHRAGGLGSHTHAYTVNVLEFSWHVGKPAEEVTGCAHCHAIAENRCSGCHTRHKFDPAEARKPTACRVCHMGIDHDEWAMYNTSIHGALYEAESARMDWGKKLKKGNYRVPTCAYCHMQNGDHNPQRFGTIYSDMGMFQVDRGAPKHKAKRDSWIKLCQDCHSPRFAADKLKEMDAGVNLSFTKWREAAAVIVGCYLDGVVDPMPEGSAPDWYGHYTFSLLPGGDPRFYATSNLERLGLEMICYLTGNVYKAYAHMSMYNQTYGNGSAFEQDRKLVEIKTEAAKLRRFAAIEKKIGLEHKSADFWKHGEYLDLLPGWKRKPGDVDVEWFKRTDIPHRANADAGVEIHH
notes: octaheme c-type cytochrome, trimeric; preparation not described
Km (purified protein): 5.8 ± 0.7 µM | Vmax (purified protein): 2.7 µmol/min/mg | kcat (purified protein): 8.4 s⁻¹ | kcat/Km (purified protein): 1.4e+06 M⁻¹ s⁻¹
